Source: US10472652B2, “Chemical engineering processes and apparatus for the synthesis of compounds” (TEEWINOT T[…], priority 2013, dated 2019)

T1: THCA synthase (Cannabis sativa, UniProt Q8GTB6)
T1 construct: His-tag (C); made in house; host or cells: Pichia pastoris (PichiaPink, pPink-HC vector), secreted into the medium; cell-free T3 supernatant used
T1 sequence (Q8GTB6 29-545): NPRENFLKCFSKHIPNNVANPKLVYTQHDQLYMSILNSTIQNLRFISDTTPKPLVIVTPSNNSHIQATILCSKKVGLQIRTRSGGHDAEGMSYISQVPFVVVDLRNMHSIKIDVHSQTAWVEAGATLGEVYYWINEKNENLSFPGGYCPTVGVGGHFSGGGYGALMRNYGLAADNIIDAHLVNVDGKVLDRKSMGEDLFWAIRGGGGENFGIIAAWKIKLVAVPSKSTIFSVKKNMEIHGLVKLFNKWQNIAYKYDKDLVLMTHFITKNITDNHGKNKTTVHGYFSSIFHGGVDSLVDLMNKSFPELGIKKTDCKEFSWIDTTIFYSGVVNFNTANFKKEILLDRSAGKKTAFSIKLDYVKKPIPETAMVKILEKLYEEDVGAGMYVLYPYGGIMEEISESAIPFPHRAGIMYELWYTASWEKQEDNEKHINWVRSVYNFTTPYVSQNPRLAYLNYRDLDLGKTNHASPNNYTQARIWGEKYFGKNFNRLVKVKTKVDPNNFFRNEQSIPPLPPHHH

B1: Pme THC(2) #46: cell free supernatant with THCA synthase from a pPink yeast colony transformed with Pme I linearized THCA synthase plasmid (protein, UniProt Q8GTB6 29-545, looked up)
Tetrahydrocannabinolic acid …: NPRENFLKCFSKHIPNNVANPKLVYTQHDQLYMSILNSTIQNLRFISDTTPKPLVIVTPSNNSHIQATILCSKKVGLQIRTRSGGHDAEGMSYISQVPFVVVDLRNMHSIKIDVHSQTAWVEAGATLGEVYYWINEKNENLSFPGGYCPTVGVGGHFSGGGYGALMRNYGLAADNIIDAHLVNVDGKVLDRKSMGEDLFWAIRGGGGENFGIIAAWKIKLVAVPSKSTIFSVKKNMEIHGLVKLFNKWQNIAYKYDKDLVLMTHFITKNITDNHGKNKTTVHGYFSSIFHGGVDSLVDLMNKSFPELGIKKTDCKEFSWIDTTIFYSGVVNFNTANFKKEILLDRSAGKKTAFSIKLDYVKKPIPETAMVKILEKLYEEDVGAGMYVLYPYGGIMEEISESAIPFPHRAGIMYELWYTASWEKQEDNEKHINWVRSVYNFTTPYVSQNPRLAYLNYRDLDLGKTNHASPNNYTQARIWGEKYFGKNFNRLVKVKTKVDPNNFFRNEQSIPPLPPHHH
modifications: yeast culture supernatant
notes: cell free supernatant with THCA synthase from a pPink yeast colony transformed with Pme I linearized THCA synthase plasmid
B2: Pme THC(3) #17: cell free supernatant with THCA synthase from a pPink yeast colony transformed with Pme I linearized THCA synthase plasmid (protein, UniProt Q8GTB6 29-545, looked up)
Tetrahydrocannabinolic acid …: NPRENFLKCFSKHIPNNVANPKLVYTQHDQLYMSILNSTIQNLRFISDTTPKPLVIVTPSNNSHIQATILCSKKVGLQIRTRSGGHDAEGMSYISQVPFVVVDLRNMHSIKIDVHSQTAWVEAGATLGEVYYWINEKNENLSFPGGYCPTVGVGGHFSGGGYGALMRNYGLAADNIIDAHLVNVDGKVLDRKSMGEDLFWAIRGGGGENFGIIAAWKIKLVAVPSKSTIFSVKKNMEIHGLVKLFNKWQNIAYKYDKDLVLMTHFITKNITDNHGKNKTTVHGYFSSIFHGGVDSLVDLMNKSFPELGIKKTDCKEFSWIDTTIFYSGVVNFNTANFKKEILLDRSAGKKTAFSIKLDYVKKPIPETAMVKILEKLYEEDVGAGMYVLYPYGGIMEEISESAIPFPHRAGIMYELWYTASWEKQEDNEKHINWVRSVYNFTTPYVSQNPRLAYLNYRDLDLGKTNHASPNNYTQARIWGEKYFGKNFNRLVKVKTKVDPNNFFRNEQSIPPLPPHHH
modifications: yeast culture supernatant
notes: as for B1
B3: Pme THC(3) #20: cell free supernatant with THCA synthase from a pPink yeast colony transformed with Pme I linearized THCA synthase plasmid (protein, UniProt Q8GTB6 29-545, looked up)
Tetrahydrocannabinolic acid …: NPRENFLKCFSKHIPNNVANPKLVYTQHDQLYMSILNSTIQNLRFISDTTPKPLVIVTPSNNSHIQATILCSKKVGLQIRTRSGGHDAEGMSYISQVPFVVVDLRNMHSIKIDVHSQTAWVEAGATLGEVYYWINEKNENLSFPGGYCPTVGVGGHFSGGGYGALMRNYGLAADNIIDAHLVNVDGKVLDRKSMGEDLFWAIRGGGGENFGIIAAWKIKLVAVPSKSTIFSVKKNMEIHGLVKLFNKWQNIAYKYDKDLVLMTHFITKNITDNHGKNKTTVHGYFSSIFHGGVDSLVDLMNKSFPELGIKKTDCKEFSWIDTTIFYSGVVNFNTANFKKEILLDRSAGKKTAFSIKLDYVKKPIPETAMVKILEKLYEEDVGAGMYVLYPYGGIMEEISESAIPFPHRAGIMYELWYTASWEKQEDNEKHINWVRSVYNFTTPYVSQNPRLAYLNYRDLDLGKTNHASPNNYTQARIWGEKYFGKNFNRLVKVKTKVDPNNFFRNEQSIPPLPPHHH
modifications: yeast culture supernatant
notes: as for B1
B4: Pme THC(3) #19: cell free supernatant with THCA synthase from a pPink yeast colony transformed with Pme I linearized THCA synthase plasmid (protein, UniProt Q8GTB6 29-545, looked up)
Tetrahydrocannabinolic acid …: NPRENFLKCFSKHIPNNVANPKLVYTQHDQLYMSILNSTIQNLRFISDTTPKPLVIVTPSNNSHIQATILCSKKVGLQIRTRSGGHDAEGMSYISQVPFVVVDLRNMHSIKIDVHSQTAWVEAGATLGEVYYWINEKNENLSFPGGYCPTVGVGGHFSGGGYGALMRNYGLAADNIIDAHLVNVDGKVLDRKSMGEDLFWAIRGGGGENFGIIAAWKIKLVAVPSKSTIFSVKKNMEIHGLVKLFNKWQNIAYKYDKDLVLMTHFITKNITDNHGKNKTTVHGYFSSIFHGGVDSLVDLMNKSFPELGIKKTDCKEFSWIDTTIFYSGVVNFNTANFKKEILLDRSAGKKTAFSIKLDYVKKPIPETAMVKILEKLYEEDVGAGMYVLYPYGGIMEEISESAIPFPHRAGIMYELWYTASWEKQEDNEKHINWVRSVYNFTTPYVSQNPRLAYLNYRDLDLGKTNHASPNNYTQARIWGEKYFGKNFNRLVKVKTKVDPNNFFRNEQSIPPLPPHHH
modifications: yeast culture supernatant
notes: as for B1
B5: Pme THC(3) #1: cell free supernatant with THCA synthase from a pPink yeast colony transformed with Pme I linearized THCA synthase plasmid (protein, UniProt Q8GTB6 29-545, looked up)
Tetrahydrocannabinolic acid …: NPRENFLKCFSKHIPNNVANPKLVYTQHDQLYMSILNSTIQNLRFISDTTPKPLVIVTPSNNSHIQATILCSKKVGLQIRTRSGGHDAEGMSYISQVPFVVVDLRNMHSIKIDVHSQTAWVEAGATLGEVYYWINEKNENLSFPGGYCPTVGVGGHFSGGGYGALMRNYGLAADNIIDAHLVNVDGKVLDRKSMGEDLFWAIRGGGGENFGIIAAWKIKLVAVPSKSTIFSVKKNMEIHGLVKLFNKWQNIAYKYDKDLVLMTHFITKNITDNHGKNKTTVHGYFSSIFHGGVDSLVDLMNKSFPELGIKKTDCKEFSWIDTTIFYSGVVNFNTANFKKEILLDRSAGKKTAFSIKLDYVKKPIPETAMVKILEKLYEEDVGAGMYVLYPYGGIMEEISESAIPFPHRAGIMYELWYTASWEKQEDNEKHINWVRSVYNFTTPYVSQNPRLAYLNYRDLDLGKTNHASPNNYTQARIWGEKYFGKNFNRLVKVKTKVDPNNFFRNEQSIPPLPPHHH
modifications: yeast culture supernatant
notes: as for B1
B6: Pme THC(3) #11: cell free supernatant with THCA synthase from a pPink yeast colony transformed with Pme I linearized THCA synthase plasmid (protein, UniProt Q8GTB6 29-545, looked up)
Tetrahydrocannabinolic acid …: NPRENFLKCFSKHIPNNVANPKLVYTQHDQLYMSILNSTIQNLRFISDTTPKPLVIVTPSNNSHIQATILCSKKVGLQIRTRSGGHDAEGMSYISQVPFVVVDLRNMHSIKIDVHSQTAWVEAGATLGEVYYWINEKNENLSFPGGYCPTVGVGGHFSGGGYGALMRNYGLAADNIIDAHLVNVDGKVLDRKSMGEDLFWAIRGGGGENFGIIAAWKIKLVAVPSKSTIFSVKKNMEIHGLVKLFNKWQNIAYKYDKDLVLMTHFITKNITDNHGKNKTTVHGYFSSIFHGGVDSLVDLMNKSFPELGIKKTDCKEFSWIDTTIFYSGVVNFNTANFKKEILLDRSAGKKTAFSIKLDYVKKPIPETAMVKILEKLYEEDVGAGMYVLYPYGGIMEEISESAIPFPHRAGIMYELWYTASWEKQEDNEKHINWVRSVYNFTTPYVSQNPRLAYLNYRDLDLGKTNHASPNNYTQARIWGEKYFGKNFNRLVKVKTKVDPNNFFRNEQSIPPLPPHHH
modifications: yeast culture supernatant
notes: as for B1
B7: Pme THC(2) #51: cell free supernatant with THCA synthase from a pPink yeast colony transformed with Pme I linearized THCA synthase plasmid (protein, UniProt Q8GTB6 29-545, looked up)
Tetrahydrocannabinolic acid …: NPRENFLKCFSKHIPNNVANPKLVYTQHDQLYMSILNSTIQNLRFISDTTPKPLVIVTPSNNSHIQATILCSKKVGLQIRTRSGGHDAEGMSYISQVPFVVVDLRNMHSIKIDVHSQTAWVEAGATLGEVYYWINEKNENLSFPGGYCPTVGVGGHFSGGGYGALMRNYGLAADNIIDAHLVNVDGKVLDRKSMGEDLFWAIRGGGGENFGIIAAWKIKLVAVPSKSTIFSVKKNMEIHGLVKLFNKWQNIAYKYDKDLVLMTHFITKNITDNHGKNKTTVHGYFSSIFHGGVDSLVDLMNKSFPELGIKKTDCKEFSWIDTTIFYSGVVNFNTANFKKEILLDRSAGKKTAFSIKLDYVKKPIPETAMVKILEKLYEEDVGAGMYVLYPYGGIMEEISESAIPFPHRAGIMYELWYTASWEKQEDNEKHINWVRSVYNFTTPYVSQNPRLAYLNYRDLDLGKTNHASPNNYTQARIWGEKYFGKNFNRLVKVKTKVDPNNFFRNEQSIPPLPPHHH
modifications: yeast culture supernatant
notes: as for B1

Molecular target: T1, THCA synthase
Assay: catalytic activity of THCA synthase from independent colonies of transformed pPink yeast cells (conversion of CBGA to THCA)
Type: biochemical
Details: 25 μl cell free supernatant of T3 sample, 100 mM citrate buffer, 10% DMSO, final pH 5.0, 2 hours at 30° C.
Experimental: After 24 hours a 100 μL of the cell sample was removed to which was added 100 μL of 40% methanol to induce enzyme production. This methanolic sample was then centrifuged at 12,000 rpm for 5 minutes and the supernatant and pellet were saved as the T1 sample. A second culture sample was obtained after a 48 hour incubation period and treated with methanol as described above. After centrifugation, the supernatant and pellet are saved as the T2 sample. At 72 hours the entire incubation mixture is treated with an appropriate volume of 40% methanol. The supernatant and pellet obtained from methanolic treatment of the culture after a 72 hour incubation period is labeled as T3. The T3 supernatant was spun through an Amicon 30 kD protein filter and analyzed for protein using an SDS-PAGE gel.
The catalytic activity of THCA synthase was measured by incubating 25 μl of the cell free supernatant from a T3 sample with 25 μl of a 1 mg/ml CBGA stock in 200 μl of a 100 mM citrate buffer at pH 4.8 having 10% DMSO for 2 hours at 30° C. The final concentration of CBGA in the reaction mixture was 0.1 mg/ml and the final pH is 5.0. Table 4 illustrates the data related to the catalytic activity of THCA synthase obtained from independent colonies of transformed pPink yeast cells, namely. pPink yeast cells that were transformed using linearized THCA synthase plasmids. Culture samples that converted greater than 20% of the substrate CBGA to product THCA were selected for scale up.

Molecule | % Conversion of CBGA to THCA in reaction containing 0.1 mg/ml CBGA. [%]
B1 | 40.7
B2 | 69.9
B3 | 34.3
B4 | 36.8
B5 | 55.2
B6 | 35.0
B7 | 26.8
